Measured values published in patent US20240026407A1, “MODIFICATION OF SAPONINS” (GLAXOSMITHKLINE BIOLOGICALS SA, priority 2020, published 2024).
Changes are numbered by the printed parent chain. Numbers in names are those of the source.

Legend:
[1] = Example 8: screening of glucosidase variants for deglycosylation of saponins in crude bark extract (FIOP); type: biochemical, Quillaja saponaria; conditions: for Cumulative FIOP (cf WT): estimate; for FIOP: fold improvement over parent
Protocol: Libraries of genetic variants encoding mutations in the wild type Modestobacter marinus glucosidase (SEQ ID No. 262) were prepared using molecular biology techniques, enzymes were prepared linked to an N-terminally located His-tag. Single monoclonal colonies were grown in 400 ul of expression medium and protein expressed. Cell pellets were lysed in 200 ul of the relevant buffer (Table 16)
Lysate was diluted appropriately in the relevant buffer to allow a lysate loading of the indicated % loading (1% loading corresponds to use of 2 ul original lysate in a 200 ul reaction). In some experiments a rhamnosidase was also present during the screening reaction (and also in controls, negating any impact on results).
Crude bark extract (CBE) obtained by aqueous extraction of Quillaja saponaria and containing at least 2.80 mg/ml QS-21 (by HPLC-UV). The pH of CBE was adjusted to pH 6 by dropwise addition of 2M NaOH with stirring. The relevant concentration of the relevant glucosidase was added. The appropriate relative volume of pH 6 CBE (160 ul (for 80%) or 150 ul (for 75%)) was added to each well of the reaction plate. The reaction plate was sealed and incubated at the relevant temperature with shaking overnight for between 18 and 22 hours.
The reaction plate was quenched by adding 200 uL of MeCN (2% AcOH, 1 mg/mL hexanophenone) to each well of the plates. The quenched reaction plate was re-sealed and incubated at 20 deg C. with shaking for 10 min. The reaction plate was then centrifuged (10 min, 4 degC).
200 uL was transferred from each well of the quenched plate to the corresponding wells of a fresh 96 well plate and sealed. The plate was analysed by UV HPLC with the method below:
A negative control (a lysate not expressing test enzymes) and a positive control (expressing the parent comparator—wild type or previous variant as appropriate). Fold improvement over parent (FIOP) for the glucosidase (shorter method) is calculated as follows:
% right peak=100*right peak area/(right peak area+left peak area)
Average % right peak area is calculated for negative controls (per plate) and subtracted from all wells to give the increase in % right peak for each well above average negative control Average increase in % right peak is calculated for positive controls per plate
FIOP=observed increase in % right peak divided by average positive control increase

[2] = Example 10: deglucosylation of saponins in crude bark extract (50%) using WT and engineered glucosidases G1 to G5; type: biochemical, Quillaja saponaria; conditions: 7 h, 50% CBE, 35 degC; for % Right Peak: starting CBE 26; for % Left Peak: starting CBE 30; for % Middle Peak: starting CBE 44
Protocol: Lyophilised powders from clarified cell lysate expressing glucosidases (from Example 8 WT glucosidase and engineered glucosidase polypeptides G1 to G5) and rhamnosidases (from Example 9 WT rhamnosidase and engineered rhamnosidase polypeptides R1 to R5) were dissolved in 200 mM sodium acetate aqueous solution at pH 5.8 to prepare the enzyme solutions at 4 fold the final reaction concentration as shown in Tables 19 and 20.
Each glucosidase solution was combined with an equal volume of 200 mM sodium acetate aqueous solution at pH 5.8 and separately with an equal volume of 200 mM sodium acetate aqueous solution at pH 5.8 containing 2 mg/ml rhamnosidase R5. This is a sufficient loading of rhamnosidase to effect complete hydrolysis of the relevant rhamnose moiety within 4 hours.
CBE was adjusted to pH of 6.0 to 6.2 with 2M sodium hydroxide and an equal volume added to the enzyme solution to prepare the reaction mix (i.e. 50% CBE concentration in reaction mix) and the concentration of glucosidase and/or rhamnosidase is shown in Tables 19 and 20. The reaction mix was heated to 35 degC for the time indicated in Tables 19 and 20, after which the reaction was quenched by addition of an equal volume of MeCN containing 2% acetic acid and shaken at room temperature for 10 mins prior to centrifugation (10 min, 4 degC) to remove particulates. Samples were analysed by UV HPLC using method of Experiment 4-4.
The change in composition of the Left, Middle and Right peaks is shown in Tables 19 and 20. The composition changes by the action of the enzymes depending on the presence or absence of the partner enzyme. The extent of reaction is proportional to the enzyme concentration and the reaction time under these conditions. The tables show data for enzyme concentrations and the reaction times providing for equivalent extents of reaction. The improvement resulting from the mutations introduced for each variant is equal to the fold change in enzyme concentration×time (i.e. fold improvement=(enzyme concentration×time) for preceding variant÷(enzyme concentration×time) for later variant). A cumulative fold improvement over the original enzyme variant is calculated by the product of the individual fold improvements.

[3] = screen temp 20, pH 6, lysate loading 2.50%, CBE loading 80%, 100 mM Potassium phosphate, Rham Present
[4] = glucosidase 0.78 mg/ml + rhamnosidase R5 0.5 mg/ml
[5] = glucosidase 0.78 mg/ml, no rhamnosidase
[6] = screen temp 35, pH 6, lysate loading 0.28%, CBE loading 75%, 100 mM Sodium acetate, Rham Present
[7] = glucosidase 0.39 mg/ml + rhamnosidase R5 0.5 mg/ml
[8] = glucosidase 0.39 mg/ml, no rhamnosidase
[9] = screen temp 35, pH 6, lysate loading 20%, CBE loading 80%, 100 mM Potassium phosphate, Rham None
[10] = glucosidase 6.25 mg/ml + rhamnosidase R5 0.5 mg/ml
[11] = glucosidase 6.25 mg/ml, no rhamnosidase

B1: Variant G3: engineered glucosidase polypeptide, variant of Modestobacter marinus glucosidase SEQ ID No. 262 (protein)
chain: MNPASSTRTDTMTDTTARTDSRLTDALAALSLEQKVQLLTGRDYWNTWPIEEIGLRRILVSDGPSGVRGEVWDERDPSLNLPSATALASAWDPDIARRYGAAAAVEARRKGVDVVLGPTINLHRSPLGGRHFEAFSEDPVLTAELAAAYVTGVQDNGVGATPKHYVANDFETDRFTVDVRADERTLRELYLLAFEKAVTEARAWLVMSAYNGINGATATENDLLETPLNSEWGFDGVVVSDWTAVRSLESARSSQDLVMPGPVGPWGDALVEAVRTGAIDESVVDRKVLRILTLAQRVGALEGSPAIDPVWVEDGVALAREAAVEGTVLLENRDELPWDATSLRKVAVIGNNAAAAMTQGGGSANVLPEYTVSPLDGVRAALPDAEVSYSLGAVVQDGLVELPLAELTNPVTGGPGLRARFLTADGAELFGEDRRKSVLVYQGGDAPIAAAATYELTARWTPTESQTVRLGFFCFGAAQLYVDGELLVESDLQPSGTDLGAAFMNPLTASAEVELVAGKPVDVRLVHDLSAKEGFAAHALFLQLGTEPAEVDEDALIAEAAEAAEAADVVLVVVGTNSIVESEGYDRESLSLPGRQDDLVRAVVAANPRTVVLVNAGAPVLLPWRDDVAALLLGWFGGQEFGNAVADVLLGVAEPGGRLPTTWPAAEADVPVLSCTPVDGVVEYTEGIHIGYRAWLRSGATPAYWFGSGQGYTCVELTGVEAPSRARPGEIVTVSVEVANRGERDGKQVVQVYAEKPDSTVDRPVRWLVGSAPVRVPAGQTAQVEVAVPTRYLAHWAGGWQYEPGVYRLRVGTTAVELPLETTLEVSA
modifications: Seq ID No. 262 with mutations T365N, R357M, A473F, L474C, I475F, F44Y, F442Q
**Q.** For B1, which “Cumulative FIOP (cf WT)” value [1, 3] is on record?
**A.** 125

**Q.** What about the FIOP [1, 3] of the same molecule?
**A.** 2.5

**Q.** And the “% change in Left Peak” value [2, 4]?
**A.** −31%

**Q.** And the “% change in Middle Peak” value [2, 4]?
**A.** −79%

**Q.** What about the “% change in Right Peak” value [2, 4] of the same molecule?
**A.** 270%

**Q.** And the “Cumulative Fold improvement in primary enzyme loading × time” value (from here on “Cumulative Fold improvement”) [2, 4]?
**A.** 64

**Q.** What about the “Fold improvement in primary enzyme loading × time” value [2, 4] of the same molecule?
**A.** 2.0

**Q.** What about the “% Right Peak” value [2, 4] of the same molecule?
**A.** 70%

**Q.** What about the “% Left Peak” value [2, 4] of the same molecule?
**A.** 21%

**Q.** And the “% Middle Peak” value [2, 4]?
**A.** 9%

**Q.** What about the “% change in Left Peak” value [2, 5] of the same molecule?
**A.** −19%

**Q.** And the “% change in Middle Peak” value [2, 5]?
**A.** −50%

**Q.** What about the “% change in Right Peak” value [2, 5] of the same molecule?
**A.** 206%

**Q.** What about the “Cumulative Fold improvement” value [2, 5] of the same molecule?
**A.** 64

**Q.** And the “Fold improvement in primary enzyme loading × time” value [2, 5]?
**A.** 2.0

**Q.** And the “% Right Peak” value [2, 5]?
**A.** 53%

**Q.** And the “% Left Peak” value [2, 5]?
**A.** 24%

**Q.** What about the “% Middle Peak” value [2, 5] of the same molecule?
**A.** 22%

B2: Variant G4: engineered glucosidase polypeptide, variant of Modestobacter marinus glucosidase SEQ ID No. 262 (protein)
chain: B1 chain with V263L, F541I
modifications: Seq ID No. 262 with mutations T365N, R357M, A473F, L474C, I475F, F44Y, F442Q, V263L, F541I
**Q.** For B2, which “Cumulative FIOP (cf WT)” value [1, 6] is on record?
**A.** 300

**Q.** And the FIOP [1, 6]?
**A.** 2.4

**Q.** What about the “% change in Left Peak” value [2, 7] of the same molecule?
**A.** −28%

**Q.** What about the “% change in Middle Peak” value [2, 7] of the same molecule?
**A.** −79%

**Q.** And the “% change in Right Peak” value [2, 7]?
**A.** 267%

**Q.** What about the “Cumulative Fold improvement” value [2, 7] of the same molecule?
**A.** 128

**Q.** What about the “Fold improvement in primary enzyme loading × time” value [2, 7] of the same molecule?
**A.** 2.0

**Q.** And the “% Right Peak” value [2, 7]?
**A.** 69%

**Q.** What about the “% Left Peak” value [2, 7] of the same molecule?
**A.** 22%

**Q.** And the “% Middle Peak” value [2, 7]?
**A.** 9%

**Q.** What about the “% change in Left Peak” value [2, 8] of the same molecule?
**A.** −22%

**Q.** What about the “% change in Middle Peak” value [2, 8] of the same molecule?
**A.** −49%

**Q.** And the “% change in Right Peak” value [2, 8]?
**A.** 208%

**Q.** What about the “Cumulative Fold improvement” value [2, 8] of the same molecule?
**A.** 128

**Q.** What about the “Fold improvement in primary enzyme loading × time” value [2, 8] of the same molecule?
**A.** 2.0

**Q.** And the “% Right Peak” value [2, 8]?
**A.** 54%

**Q.** And the “% Left Peak” value [2, 8]?
**A.** 23%

**Q.** And the “% Middle Peak” value [2, 8]?
**A.** 23%

B3: Variant G1: engineered glucosidase polypeptide, variant of Modestobacter marinus glucosidase SEQ ID No. 262 (protein)
chain: B1 chain with Y44F, M357R, Q442F, F473A, C474L, F475I
modifications: Seq ID No. 262 with mutation T365N
**Q.** Which “Cumulative FIOP (cf WT)” value [1, 9] does the source give for B3 here?
**A.** 5

**Q.** And the FIOP [1, 9]?
**A.** 5

**Q.** What about the “% change in Left Peak” value [2, 10] of the same molecule?
**A.** −39%

**Q.** What about the “% change in Middle Peak” value [2, 10] of the same molecule?
**A.** −64%

**Q.** What about the “% change in Right Peak” value [2, 10] of the same molecule?
**A.** 253%

**Q.** What about the “Cumulative Fold improvement” value [2, 10] of the same molecule?
**A.** 8

**Q.** And the “Fold improvement in primary enzyme loading × time” value [2, 10]?
**A.** 8.0

**Q.** And the “% Right Peak” value [2, 10]?
**A.** 66%

**Q.** And the “% Left Peak” value [2, 10]?
**A.** 18%

**Q.** And the “% Middle Peak” value [2, 10]?
**A.** 16%

**Q.** And the “% change in Left Peak” value [2, 11]?
**A.** −8%

**Q.** And the “% change in Middle Peak” value [2, 11]?
**A.** −59%

**Q.** And the “% change in Right Peak” value [2, 11]?
**A.** 209%

**Q.** What about the “Cumulative Fold improvement” value [2, 11] of the same molecule?
**A.** 8

**Q.** What about the “Fold improvement in primary enzyme loading × time” value [2, 11] of the same molecule?
**A.** 8.0

**Q.** What about the “% Right Peak” value [2, 11] of the same molecule?
**A.** 54%

**Q.** And the “% Left Peak” value [2, 11]?
**A.** 28%

**Q.** And the “% Middle Peak” value [2, 11]?
**A.** 18%
